A value given as a limit tells only on which side of the number the result lay.

These results are taken from paper doi:10.1101/2025.05.16.654432.

One experiment has as its target Trigger Factor (UniProt P0A850). As to the kind of experiment: high-speed atomic force microscopy.
Experiment [1] addresses ribosome-nascent chain complex (RNC) stalled on mTFP1-KCNQ helices A, TW, B-SecM arrest peptide (UniProt P0ADZ0). As to the kind of experiment: high-speed atomic force microscopy.

Chain of Trigger Factor (P0A850 whole entry): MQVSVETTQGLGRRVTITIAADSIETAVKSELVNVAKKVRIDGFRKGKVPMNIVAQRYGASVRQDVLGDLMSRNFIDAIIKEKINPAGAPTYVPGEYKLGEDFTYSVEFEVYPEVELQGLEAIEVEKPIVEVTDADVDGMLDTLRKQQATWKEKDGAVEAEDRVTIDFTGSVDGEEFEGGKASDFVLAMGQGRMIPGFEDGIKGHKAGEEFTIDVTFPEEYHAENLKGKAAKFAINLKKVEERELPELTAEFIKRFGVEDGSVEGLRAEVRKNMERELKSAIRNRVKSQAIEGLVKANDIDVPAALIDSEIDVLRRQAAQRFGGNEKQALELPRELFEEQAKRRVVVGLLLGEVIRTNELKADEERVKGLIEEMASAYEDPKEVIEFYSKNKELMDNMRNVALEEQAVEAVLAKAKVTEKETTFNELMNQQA

The substance “Trigger Factor (from UniProt P0A850 1-432) (natural protein)” had a stoichiometry N with Trigger Factor of 2. Moreover, in experiment [1], the duration of binding was more than 30 s; the duration of binding (second interaction, near bL17) is less than 15 s; the dwell time constant τ (first TF binding event) was 8 s; the dwell time constant τ (first TF molecule) amounted to 8.3 s. Also, in experiment [1], the dwell time constant τ (second TF molecule, near bL17) was determined as 3.9 s and the stoichiometry N is 2.

What is called stoichiometry N is the number of molecules, sites or subunits per partner or assembly.
